Data from patent US20250326840A1 (QURE BIOTECHNOLOGY SHANGHAI, published 2025).
Substitutions are numbered along the chain they refer to. Names and notes keep the numbering of the source. Read-outs that look alike come from different tables or passages of the source. Values belong to the binder of their own block, whether it stands above or below them.

Key:
[1] = molecular target: T1, QP094 (human SIRPα V1 ECD(E31-R370)-flag-his) (human, UniProt P78324 31-370); experiment: SPR, Biacore T200
T1 construct: the construct carries flag and his tags; also called SIRPαV1-flag-his; SIRPαV1-his (QP094)

[2] = molecular target: T2, QP096 (human SIRPα V2 ECD(E31-R370)-flag-his) (human); experiment: SPR, Biacore T200
T2 construct: the construct carries flag and his tags; also called SIRPαV2-Flag-his; Human SIRPα V2 (QP096)

[3] = molecular target: T3, QP002 (biotinylated in the blocking assays, sites not given); experiment: blocking ELISA: CD47 FC (QP001) coated, biotin SIRPα-FC (QP002) mixed with the antibody, HRP-streptavidin; blocked ligand: CD47; unit from the x axis Log(Conc.(nM))
T3 construct: also called SIRPα-FC; Biotin-QP002

[4] = molecular target: T1, QP094 (human SIRPα V1 …); experiment: SPR, Biacore
[5] = molecular target: T2, QP096 (human SIRPα V2 …); experiment: SPR, Biacore
[6] = molecular target: T4, QP100 (cyno SIRPα (G7PGS8) ECD(E29-R368)-flag-his) (cynomolgus); experiment: SPR, Biacore
T4 construct: the construct carries flag and his tags; also called cynoSIRPα-flag-his; Cynomolgus SIRPα (QP100)
T4 chain: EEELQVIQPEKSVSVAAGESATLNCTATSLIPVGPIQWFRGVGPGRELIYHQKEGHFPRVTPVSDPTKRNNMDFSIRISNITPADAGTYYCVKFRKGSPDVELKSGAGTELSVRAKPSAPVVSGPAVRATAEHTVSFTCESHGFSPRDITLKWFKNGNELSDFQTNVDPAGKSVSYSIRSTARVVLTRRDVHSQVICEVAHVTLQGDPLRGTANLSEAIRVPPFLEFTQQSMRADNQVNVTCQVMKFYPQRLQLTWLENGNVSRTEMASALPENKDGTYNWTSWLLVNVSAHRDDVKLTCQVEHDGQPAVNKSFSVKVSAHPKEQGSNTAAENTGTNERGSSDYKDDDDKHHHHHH

[7] = molecular target: T1, QP094 (human SIRPα V1 …); experiment: SPR, Biacore; remark: listed apart in the source
[8] = molecular target: T2, QP096 (human SIRPα V2 …); experiment: SPR, Biacore; remark: listed apart in the source
[9] = molecular target: T5, QP098 (cyno SIRPα (I7G9Z7) ECD(E31-R369)-flag-his) (cynomolgus); experiment: SPR, Biacore
T5 construct: the construct carries flag and his tags; also called cynoSIRPα (ECD); cynomolgus SIRPα
T5 chain: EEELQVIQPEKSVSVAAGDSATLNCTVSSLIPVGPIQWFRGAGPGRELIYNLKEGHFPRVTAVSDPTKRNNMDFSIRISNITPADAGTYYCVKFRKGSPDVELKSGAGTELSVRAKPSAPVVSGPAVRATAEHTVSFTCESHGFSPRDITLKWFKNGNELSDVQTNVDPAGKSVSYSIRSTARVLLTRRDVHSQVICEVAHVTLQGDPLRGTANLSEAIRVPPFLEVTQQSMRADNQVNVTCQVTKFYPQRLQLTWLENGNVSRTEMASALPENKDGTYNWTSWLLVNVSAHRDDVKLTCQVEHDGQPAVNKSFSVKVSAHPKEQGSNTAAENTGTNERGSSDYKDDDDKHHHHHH

[10] = molecular target: T6, QP271 (rhesus SIRPα1-flag-his T-557-28) (rhesus monkey); experiment: SPR, Biacore
T6 construct: also called rhesus monkey SIRPα (QP271); monkeySIRPα1-flag-his
T6 chain: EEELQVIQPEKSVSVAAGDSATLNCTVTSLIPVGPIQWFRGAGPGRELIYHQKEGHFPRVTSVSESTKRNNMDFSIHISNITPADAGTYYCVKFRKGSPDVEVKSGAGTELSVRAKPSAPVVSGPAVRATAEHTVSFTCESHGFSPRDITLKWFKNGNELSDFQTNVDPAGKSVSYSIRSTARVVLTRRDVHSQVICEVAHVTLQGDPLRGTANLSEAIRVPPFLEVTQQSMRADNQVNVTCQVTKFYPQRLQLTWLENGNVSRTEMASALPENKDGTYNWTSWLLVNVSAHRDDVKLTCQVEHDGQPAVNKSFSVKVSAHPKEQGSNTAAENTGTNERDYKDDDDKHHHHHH

[11] = molecular target: T7, QP273 (cynoSIRPα2-flag-his T-557-14) (cynomolgus); experiment: SPR, Biacore
T7 construct: also called cynomolgus SIRPα (QP273)
T7 chain: T6 chain with D19E, V27A, A42V, H51S, S62P, E65D, S66P, H77R, V103L

[12] = molecular target: T1, QP094 (human SIRPα V1 …); experiment: binding ELISA, antigen coated
[13] = molecular target: T2, QP096 (human SIRPα V2 …); experiment: binding ELISA, antigen coated
[14] = molecular target: T5, QP098 (cyno SIRPα (I7G9Z7) …); experiment: binding ELISA, antigen coated
[15] = molecular target: T4, QP100 (cyno SIRPα (G7PGS8) …); experiment: binding ELISA, antigen coated
[16] = molecular target: T6, QP271 (rhesus SIRPα1-flag-his T-557-28); experiment: binding ELISA, antigen coated
[17] = molecular target: T7, QP273 (cynoSIRPα2-flag-his T-557-14); experiment: binding ELISA, antigen coated
[18] = molecular target: T3, QP002; experiment: blocking ELISA: QP001.2 (CD47) coated, biotin-QP002 (SIRPα-FC) mixed with the antibody, HRP-streptavidin; blocked ligand: CD47
[19] = molecular target: T8, PD-L1-his (QPP09) (human, UniProt Q9NZQ7 19-239, limits assumed); experiment: SPR, Biacore 8K
T8 construct: also called human PD-L1; human PD-L1 recombinant protein
T8 sequence (Q9NZQ7 19-239 limits assumed): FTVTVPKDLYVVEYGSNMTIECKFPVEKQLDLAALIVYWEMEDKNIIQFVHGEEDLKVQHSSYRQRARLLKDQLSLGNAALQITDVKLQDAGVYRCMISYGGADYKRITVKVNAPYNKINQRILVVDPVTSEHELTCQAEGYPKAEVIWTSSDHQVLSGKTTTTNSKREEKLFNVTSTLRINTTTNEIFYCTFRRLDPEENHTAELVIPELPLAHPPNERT

[20] = molecular target: QP003 (PDL1-his); experiment: ELISA, QP003 (PDL1-his) captured on coated anti-his, anti-hFc detection; unit from the x axis Log(Conc.(nM))
Chain of QP003 (PDL1-his) (chain, as listed by the source limits assumed): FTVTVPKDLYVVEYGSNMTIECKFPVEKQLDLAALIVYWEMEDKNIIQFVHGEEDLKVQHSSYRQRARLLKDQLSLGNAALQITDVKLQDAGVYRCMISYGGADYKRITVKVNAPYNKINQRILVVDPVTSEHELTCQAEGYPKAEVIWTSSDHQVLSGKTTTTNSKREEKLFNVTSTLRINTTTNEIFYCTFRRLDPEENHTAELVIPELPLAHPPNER

[21] = molecular target: T9, PD-L1-mouse Fc protein (human, UniProt Q9NZQ7 19-239, limits assumed); experiment: blocking ELISA: QP1138 (PD1-FC) coated, PDL1-mouse FC mixed with the antibody, HRP anti-mouse IgG; blocked partner: PD-1; unit from the x axis Log(Conc.(nM))
T9 sequence (Q9NZQ7 19-239 limits assumed): as the sequence (Q9NZQ7 19-239 limits assumed) above

[22] = molecular target: T10, QP009 (SIRPα) (Homo sapiens (Human)); experiment: ELISA of hybridoma supernatant on QP009
T10 construct: Entry includes a C-terminal flag-his tag as printed; also called recombinant protein QP009
T10 chain: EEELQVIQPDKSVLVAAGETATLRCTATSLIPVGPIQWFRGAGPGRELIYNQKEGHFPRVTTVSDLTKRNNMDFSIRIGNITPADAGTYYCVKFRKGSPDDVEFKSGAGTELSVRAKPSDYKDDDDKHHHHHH

[23] = molecular target: T5, QP098 (cyno SIRPα (I7G9Z7) …); experiment: SPR, Biacore 8K
[24] = molecular target: T6, QP271 (rhesus SIRPα1-flag-his T-557-28); experiment: SPR, Biacore 8K
[25] = molecular target: T8, PD-L1-his (QPP09); experiment: SPR, Biacore 8K; remark: listed apart in the source
[26] = molecular target: T11, Rhesus PD-L1 (rhesus monkey, UniProt F6PJN1 19-239); experiment: SPR, Biacore 8K
T11 construct: also called rhesus monkey PD-L1

[27] = molecular target: T12, human PD-L1 on HCC827 cells (human, UniProt Q9NZQ7 19-290); experiment: FACS on HCC827 cells
T12 construct: whole, on cells; also called HCC827 cells naturally expressing human PD-L1
T12 sequence (Q9NZQ7 19-290): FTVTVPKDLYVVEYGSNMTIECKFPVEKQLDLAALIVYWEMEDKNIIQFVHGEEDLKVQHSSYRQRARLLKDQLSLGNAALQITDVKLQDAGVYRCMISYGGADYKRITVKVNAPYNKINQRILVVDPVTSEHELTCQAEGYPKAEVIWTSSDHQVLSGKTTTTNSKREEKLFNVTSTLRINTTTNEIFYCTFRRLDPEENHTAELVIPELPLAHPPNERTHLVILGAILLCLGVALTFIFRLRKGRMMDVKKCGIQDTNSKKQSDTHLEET

[28] = molecular target: T9, PD-L1-mouse Fc protein; experiment: competitive ELISA, CD80 coated, PD-L1-mouse Fc
[29] = molecular target: T9, PD-L1-mouse Fc protein; experiment: competitive ELISA, PD-1 coated, PD-L1-mouse Fc
[30] = molecular target: T8, PD-L1-his (QPP09); experiment: ELISA, PD-L1 captured by coated anti-HIS antibody

B1: QP026027 (antibody, human IgG1, kappa)
heavy: not shown
light: QIVLTQSPAIMSASPGEKVTLTCSASSSVSSSYLYWYQQKPGSSPKLWIYSTSNLASGVPARFSGSGSGTSYSLTISSMEAEDAASYFCHQWSSYPRTFGAGTKLELKRTVAAPSVFIFPPSDEQLKSGTASVVCLLNNFYPREAKVQWKVDNALQSGNSQESVTEQDSKDSTYSLSSTLTLSKADYEKHKVYACEVTHQGLSSPVTKSFNRGEC
notes: also called KWAR23 (QP026027); control antibody KWAR23, human IgG1
Kd [1]: 5.12 nM
koff [1]: 0.00465 s⁻¹
kon [1]: 908000 M⁻¹ s⁻¹
Kd [2]: 12.3 nM
koff [2]: 0.0246 s⁻¹
kon [2]: 2.01e+06 M⁻¹ s⁻¹
IC50 [3]: 0.295 nM

B2: QP256253 (antibody, human IgG4, V domains shown)
VH: QVQLVQSGAEVKKPGASVKVSCKASGYTFTNYWINWVRQAPGQGLEWIAMIDPSDSETHYNQIFKDRATLTTDTSTSTAYMELRSLRSDDTAVYYCAMDYGSLYAMDYWGRGTLVTVSS
VL: DIVLTQSPDSLAVSLGERATINCRASKSVSSSGYNYIFWYQQKPGQPPKLLIYLASNLDSGVPDRFSGSGSGTDFTLTISSLQAEDVAVYYCQHSRELPTFGQGTKLEIK
notes: also called humanized antibody QP256253; QP163164 humanized clone
Kd [4]: 0.336 nM
koff [4]: 0.00079 s⁻¹
kon [4]: 2.35e+06 M⁻¹ s⁻¹
Kd [5]: 0.319 nM
koff [5]: 0.00109 s⁻¹
kon [5]: 3.42e+06 M⁻¹ s⁻¹
Kd [6]: 77.9 nM
koff [6]: 0.196 s⁻¹
kon [6]: 2.52e+06 M⁻¹ s⁻¹
Kd [7]: 0.26 nM
Kd [8]: 0.276 nM
Kd [9]: 26.8 nM
Kd [10]: 7.97 nM
Kd [11]: 12.7 nM
EC50 [12]: 1.19 ng/mL
EC50 [13]: 1.19 ng/mL
EC50 [14]: 1.26 ng/mL
EC50 [15]: 1.72 ng/mL
EC50 [16]: 0.947 ng/mL
EC50 [17]: 1.51 ng/mL
IC50 (read off the curve) [18]: ~20 ng/mL

B5: Q-1801 (bispecific antibody, human IgG1, kappa, L234A L235A)
heavy: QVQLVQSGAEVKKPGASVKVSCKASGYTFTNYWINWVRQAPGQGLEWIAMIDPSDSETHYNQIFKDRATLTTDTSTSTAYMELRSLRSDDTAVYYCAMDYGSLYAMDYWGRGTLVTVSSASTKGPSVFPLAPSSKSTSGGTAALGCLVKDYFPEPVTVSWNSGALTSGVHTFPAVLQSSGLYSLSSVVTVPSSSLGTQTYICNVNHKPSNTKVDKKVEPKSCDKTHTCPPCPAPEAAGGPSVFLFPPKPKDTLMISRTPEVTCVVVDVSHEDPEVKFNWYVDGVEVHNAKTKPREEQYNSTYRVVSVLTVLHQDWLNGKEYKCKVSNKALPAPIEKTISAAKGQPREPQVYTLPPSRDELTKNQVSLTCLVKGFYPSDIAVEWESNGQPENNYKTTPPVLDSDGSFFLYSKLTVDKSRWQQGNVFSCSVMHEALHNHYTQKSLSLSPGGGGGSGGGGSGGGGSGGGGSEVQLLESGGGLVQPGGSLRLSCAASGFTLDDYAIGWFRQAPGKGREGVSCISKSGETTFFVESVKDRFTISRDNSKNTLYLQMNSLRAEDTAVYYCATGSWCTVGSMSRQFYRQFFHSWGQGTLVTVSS
light: DIVLTQSPDSLAVSLGERATINCRASQSVRSSGYNWIFWYQQKPGQPPKLLIYLASNRDSGVPDRFSGSGSGTDFTLTISSLQAEDVAVYYCQHSRELPTFGQGTKLEIKRTVAAPSVFIFPPSDEQLKSGTASVVCLLNNFYPREAKVQWKVDNALQSGNSQESVTEQDSKDSTYSLSSTLTLSKADYEKHKVYACEVTHQGLSSPVTKSFNRGEC
notes: Anti-SIRPα VH-CH1-Fc(L234A, L235A, K338A)-(G4S)4-anti-PD-L1 VHH heavy chain; kept as one molecule; also called CHO44; QP32820279
Kd [19]: 0.429 nM
koff [19]: 0.000433 s⁻¹
kon [19]: 1.01e+06 M⁻¹ s⁻¹
Kd [23]: 2.14 nM
koff [23]: 0.0117 s⁻¹
kon [23]: 5.46e+06 M⁻¹ s⁻¹
Kd [24]: 0.522 nM
koff [24]: 0.00303 s⁻¹
kon [24]: 5.81e+06 M⁻¹ s⁻¹
Kd [25]: 0.431 nM
koff [25]: 0.000433 s⁻¹
kon [25]: 1.01e+06 M⁻¹ s⁻¹
Kd [26]: 0.499 nM
koff [26]: 0.000779 s⁻¹
kon [26]: 1.56e+06 M⁻¹ s⁻¹
EC50 [27]: 0.142 nM
IC50 [28]: 0.742 nM
IC50 [29]: 0.904 nM
EC50 [30]: 0.122 nM
EC50 [20]: 0.0307 nM
IC50 [21]: 0.382 nM

Second part, the binder after the results:

Kd [19]: 1.29 nM
koff [19]: 0.00103 s⁻¹
kon [19]: 801000 M⁻¹ s⁻¹
EC50 [20]: 0.0133 nM
IC50 [21]: 0.59 nM
B3: QP32700625 (bispecific antibody, human IgG1, kappa, L234A L235A)
heavy: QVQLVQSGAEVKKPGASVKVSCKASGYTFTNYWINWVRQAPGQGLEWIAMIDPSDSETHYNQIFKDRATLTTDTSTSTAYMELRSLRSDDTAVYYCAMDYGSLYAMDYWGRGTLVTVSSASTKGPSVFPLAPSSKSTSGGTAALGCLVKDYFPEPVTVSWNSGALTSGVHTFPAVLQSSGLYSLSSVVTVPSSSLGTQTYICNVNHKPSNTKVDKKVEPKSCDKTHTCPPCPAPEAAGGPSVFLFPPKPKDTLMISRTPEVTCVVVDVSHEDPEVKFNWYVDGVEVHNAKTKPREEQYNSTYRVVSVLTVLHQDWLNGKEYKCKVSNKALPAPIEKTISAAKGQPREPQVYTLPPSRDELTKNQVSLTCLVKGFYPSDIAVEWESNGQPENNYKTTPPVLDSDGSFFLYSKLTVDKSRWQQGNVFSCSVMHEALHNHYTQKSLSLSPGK
light: EVQLLESGGGLVQPGGSLRLSCAASGFTLDDYAIGWFRQAPGKGREGVSCISKSGETTFFVESVKDRFTISRDNSKNTLYLQMNSLRAEDTAVYYCATGSWCTVGSMSRQFYRQFFHSWGQGTLVTVSSGGGGSGGGGSGGGGSDIVLTQSPDSLAVSLGERATINCRASQSVRSSGYNWIFWYQQKPGQPPKLLIYLASNRDSGVPDRFSGSGSGTDFTLTISSLQAEDVAVYYCQHSRELPTFGQGTKLEIKRTVAAPSVFIFPPSDEQLKSGTASVVCLLNNFYPREAKVQWKVDNALQSGNSQESVTEQDSKDSTYSLSSTLTLSKADYEKHKVYACEVTHQGLSSPVTKSFNRGEC
notes: Anti-PD-L1 VHH-(G4S)3 fused to the N-terminus of the light chain

binding result [22]: binds
B4: 71C10 (antibody, V domains shown)
VH: QVQLQQPGTELVRPGASVKLSCKASGYTFTNYWINWVKQRPGQGLEWIAMIDPSDSETHYNQIFKDKATLTVDKSSNTAYMQLSSLTSGDSAVYYCAMDYGSLYAMDYWGRGTSVTVSS
VL: DIVLTQSPASLAVSLGQRATISCRASKSVSSSGYNYIFWYQQKPGQPPKLLIYLASNLDSGVPARFSGSGSGTDFTLNIHPVEEEDAATYYCQHSRELPTFGGGTKLEIK
notes: Mouse hybridoma antibody tested as culture supernatant; also called hybridoma monoclonal antibody 71C10; single-cell clone 71C10
